Assays:
Flag-HPV16 E6 = target: T1, Flag-HPV16 E6 (HPV16, UniProt P03126 1-158); assay: sandwich ELISA: flag antibody capture of 293T lysate (fresh or liquid-based fixed)
T1 chain: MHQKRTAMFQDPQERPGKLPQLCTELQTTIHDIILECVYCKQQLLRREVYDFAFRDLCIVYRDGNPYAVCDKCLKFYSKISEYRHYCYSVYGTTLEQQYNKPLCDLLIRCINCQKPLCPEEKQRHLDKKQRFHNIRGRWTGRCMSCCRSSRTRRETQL

FLAG-HPV18 E6 = target: T2, FLAG-HPV18 E6 (HPV18, UniProt P06463 1-158); assay: as above
T2 construct: Flag-E6 fusion protein from transfected 293T cell lysate, captured on a coated flag antibody; also called 可溶性蛋白HPV18 E6
T2 sequence (P06463 whole entry, the tested form may be a part): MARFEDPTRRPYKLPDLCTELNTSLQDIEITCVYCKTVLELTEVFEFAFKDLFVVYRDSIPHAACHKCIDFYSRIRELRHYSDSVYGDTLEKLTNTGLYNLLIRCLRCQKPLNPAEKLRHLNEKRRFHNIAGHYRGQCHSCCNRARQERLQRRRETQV

FLAG-HPV68 E6 [1] = target: T3, FLAG-HPV68 E6 (HPV68); assay: sandwich ELISA: flag antibody capture of Flag-E6 from 293T lysate, A4F9 supernatant 1:1
T3 construct: Flag-E6 fusion protein from transfected 293T cell lysate, captured on a coated flag antibody

FLAG-HPV6 E6 [2] = target: T4, FLAG-HPV6 E6 (HPV6, UniProt P06462 1-150); assay: as above
T4 construct: Flag-E6 fusion protein from transfected 293T cell lysate, captured on a coated flag antibody
T4 chain: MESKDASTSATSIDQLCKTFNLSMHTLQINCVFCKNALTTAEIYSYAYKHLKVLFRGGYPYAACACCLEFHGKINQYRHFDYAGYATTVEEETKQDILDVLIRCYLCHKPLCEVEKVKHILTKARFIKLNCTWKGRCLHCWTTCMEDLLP

FLAG-HPV11 E6 [3] = target: T5, FLAG-HPV11 E6 (HPV11, UniProt P04019 1-150); assay: as above
T5 construct: Flag-E6 fusion protein from transfected 293T cell lysate, captured on a coated flag antibody
T5 sequence: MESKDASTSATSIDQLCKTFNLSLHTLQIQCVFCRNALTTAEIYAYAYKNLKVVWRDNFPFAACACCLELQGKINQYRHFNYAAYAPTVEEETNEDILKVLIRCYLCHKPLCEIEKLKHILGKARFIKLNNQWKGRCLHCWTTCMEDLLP

FLAG-HPV68 E6 [4] = target: T3, FLAG-HPV68 E6; assay: sandwich ELISA; (HPV OD450 - 293T negative control)/HPV16 OD450, HPV16 E6 = 100%
FLAG-HPV6 E6 [5] = target: T4, FLAG-HPV6 E6; assay: as above
FLAG-HPV11 E6 [6] = target: T5, FLAG-HPV11 E6; assay: as above
[7] = target: T6, HPV16 E6蛋白 (宫颈癌细胞株CaSki细胞内源表达) (HPV16, UniProt P03126 1-158); assay: immunocytochemistry on fixed CaSki cells, DAB
T6 construct: whole, on cells; Intracellular protein in fixed cells (95% ethanol, EDTA heat retrieval), stained by immunocytochemistry; also called CaSki阳性标准对照细胞

[8] = target: T7, HPV18 E6蛋白 (宫颈癌细胞株Hela细胞内源表达) (HPV18, UniProt P06463 1-158, limits assumed); assay: immunocytochemistry on fixed HeLa cells mixed with a negative clinical pool, DAB
T7 construct: whole, on cells; Intracellular protein in fixed cells, stained by immunocytochemistry; HeLa cells were mixed into a pool of negative clinical samples
T7 sequence (P06463 whole entry): as the sequence (P06463 whole entry, the tested form may be a part) above

FLAG-HPV6 E6 [9] = target: T4, FLAG-HPV6 E6; assay: sandwich ELISA: flag antibody capture of 293T lysate, A4F9 supernatant 1:1
FLAG-HPV11 E6 [10] = target: T5, FLAG-HPV11 E6; assay: as above

B1: 抗HPV E6兔源单克隆抗体 A4F9 (antibody, V domains shown)
VH: QEQLVESGGGLVQPEGSLTLTCTASGFSFSSSYWICWVRQAPGKGLEWIACIYSGDGDAYYASWAKGRFTISKTSSTTVTLQMTSLTAADTAAYFCARDRVYDSSSGHGLWGPGTLVTVSS
VL: DIVMTQTPFSVSAAAGGTVTINCQASENIYSNLAWYQQKPGQRPKLLIYGTSDLPSGVPSRFSGSGYGTEFTLTISDLECADAATYYCQSYYYRSSSAYGWDFGGGTEVVVK
notes: Rabbit monoclonal from single B cell cloning, tested as clone supernatant (rabbit IgG, detected with goat anti-rabbit-HRP); also called 克隆上清A4F9; A4F9克隆
Flag-HPV16 E6
  binding result: binds
FLAG-HPV18 E6
  binding result: binds
FLAG-HPV68 E6 [1]
  OD450: 0.5
FLAG-HPV6 E6 [2]
  OD450: 0.1
FLAG-HPV11 E6 [3]
  OD450: 0.1
FLAG-HPV68 E6 [4]
  %交叉活性: 6.3%
FLAG-HPV6 E6 [5]
  %交叉活性: -6.3%
FLAG-HPV11 E6 [6]
  %交叉活性: -5.2%
[7]
  binding result: binds
[8]
  binding result: binds
FLAG-HPV6 E6 [9]
  binding result: no binding
FLAG-HPV11 E6 [10]
  binding result: no binding

Reference: patent CN116410306A (ATTOGEN BIOMEDICAL SUZHOU INC LTD, dated 2023)
